Measured values from patent US20220098635A1.

Tests used:
Thiolated streptavidin [1] = target: Thiolated streptavidin (UniProt P22629); assay: single-molecule conductance distribution (counts against Log G, fitted peaks); bis-biotinylated phi29 polymerase in a junction of palladium electrodes coated with thiolated streptavidin
Thiolated streptavidin [2] = target: Thiolated streptavidin (UniProt P22629); assay: single-molecule conductance distribution (counts against Log G, fitted peaks); two-Avitag phi29 polymerase without flexible linker wired with biotin-streptavidin; the same distribution as 52 in Fig. 5B

Thiolated streptavidin, sequence (P22629 37-163 limits assumed): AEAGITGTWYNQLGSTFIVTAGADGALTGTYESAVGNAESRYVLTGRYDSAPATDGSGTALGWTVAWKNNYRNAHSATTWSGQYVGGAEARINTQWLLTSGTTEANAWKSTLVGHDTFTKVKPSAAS

With “bis-biotinylated ϕ29 polymerase (from UniProt P03680 1-111; P03680 112-279; P03680 280-575) (enzyme)” the conductance peak (circled feature 53) (Thiolated streptavidin [1]) was 3.98 nS and the conductance peak (circled feature 1103) (Thiolated streptavidin [2]) was 3.98 nS.
